Measured values taken from patent US20240218069A1 (LYVGEN BIOPHARMA, published 2024).

T1: human B7H3 (human, UniProt Q5ZPR3 29-534)
T1 construct: whole, on cells; CHO cells over-expressing human B7H3 (CHO-B7H3); also called CD276; cellular B7H3
T1 sequence (looked up): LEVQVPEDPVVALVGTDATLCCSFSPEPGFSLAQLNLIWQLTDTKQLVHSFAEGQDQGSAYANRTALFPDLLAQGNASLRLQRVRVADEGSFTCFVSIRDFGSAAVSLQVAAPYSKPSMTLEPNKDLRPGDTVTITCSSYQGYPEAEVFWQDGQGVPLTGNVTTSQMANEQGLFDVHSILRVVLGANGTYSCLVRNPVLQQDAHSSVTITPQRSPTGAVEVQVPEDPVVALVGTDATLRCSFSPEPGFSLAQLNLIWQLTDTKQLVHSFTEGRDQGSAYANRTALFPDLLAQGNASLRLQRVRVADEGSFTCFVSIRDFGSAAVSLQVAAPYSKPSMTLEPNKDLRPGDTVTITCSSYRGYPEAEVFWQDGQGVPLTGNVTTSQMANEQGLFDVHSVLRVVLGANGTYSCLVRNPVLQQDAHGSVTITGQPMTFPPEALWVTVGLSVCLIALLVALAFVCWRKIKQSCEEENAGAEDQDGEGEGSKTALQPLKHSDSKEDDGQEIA


Experiments:
[1] = biological target: T2, human CD40 (human, UniProt P25942 21-277); assay: FACS on CHO cells expressing human CD40 (FIG. 2D)
T2 construct: whole, on cells; also called huCD40
T2 sequence (P25942 21-277): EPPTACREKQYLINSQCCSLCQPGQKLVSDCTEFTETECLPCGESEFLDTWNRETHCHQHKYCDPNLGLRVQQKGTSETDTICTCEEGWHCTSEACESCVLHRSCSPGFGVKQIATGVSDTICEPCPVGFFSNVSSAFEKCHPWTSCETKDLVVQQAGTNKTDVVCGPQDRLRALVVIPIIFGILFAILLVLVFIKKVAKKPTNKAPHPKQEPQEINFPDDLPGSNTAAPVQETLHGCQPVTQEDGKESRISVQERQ

[2] = biological target: T1, human B7H3; assay: FACS on CHO cells over-expressing human B7H3
Protocol: FACS analysis was performed to evaluate the binding properties of exemplary anti-B7H3 humanized antibodies. Briefly, CHO cells over-expressing human B7H3 were harvested using trypsin-EDTA partial digestion followed by centrifugation at 1000 g for 3 minutes. The cells were re-suspended in cold PBS-BSA (2%) at 2×10⁶/mL and aliquoted to 100 μL/tube. The anti-B7H3 humanized antibodies were serially diluted in PBS-BSA and 50 μL of each was added to the CHO-B7H3 cells. The cell were mixed and incubated at 4° C. in the dark for 2 hours, then washed with PBS-BSA twice. Secondary antibody conjugates (goat F(ab′)₂ anti-human IgG-Fc (PE), pre-adsorbed, Abcam #ab98596) at 1/500 dilution, 100 μL/well, was used to resuspend the cells. The cells were incubated 4° C. in dark for another 1 hour and washed twice with PBS-BSA, followed by fixation in 2% PFA/PBS, and then subjected to FACS analysis.
Binding of the antibodies to human B7H3 expressing CHO cells were evaluated and the mean fluorescence intensity is plotted in histograms as shown in FIGS. 1A-1C. […] However, Ly1426 (CDR grafted, without back mutation) didn't bind to cellular B7H3.

[3] = biological target: T2, human CD40; assay: FACS on CHO cells expressing human CD40 (FIGS. 2C and 2D)
[4] = biological target: T2, human CD40; assay: FACS on CHO cells expressing human CD40 (FIG. 2C)

Binder	binding result [4]	further results
Ly1579 (bispecific antibody, Two-chain format; also called anti-B7H3/CD40 bi-specific antibody Ly1579) heavy: not shown light: EIVLTQSPATLSLSPGERATLSCRASSSVSSSYLHWYQQKPGQAPRLLIYSTSNLASGIPARFSGSGSGTDFTLTISSLEPEDFAVYYCQHYSGYPLTFGGGTKVEIKRTVAAPSVFIFPPSDEQLKSGTASVVCLLNNFYPREAKVQWKVDNALQSGNSQESVTEQDSKDSTYSLSSTLTLSKADYEKHKVYACEVTHQGLSSPVTKSFNRGEC		binding result [1]: binds
Ly1426 (antibody, human IgG1, kappa, V domains shown, also called Ly383_VH-1/Ly383_VL-1; grafted humanized antibody of Ly383) VH: QVQLVQSGAEVKKPGASVKVSCKASGYTFTSYVMHWVRQAPGQGLEWMGYINPYNDGTECTDKFKGRVTMTRDTSTSTVYMELSSLRSEDTAVYYCARIYYGYDGTYFGVWGQGTLVTVSS VL: EIVLTQSPATLSLSPGERATLSCRASSSVSYMHWYQQKPGQAPRLLIYATSNLASGIPARFSGSGSGTDFTLTISSLEPEDFAVYYCQQWSSNTLTFGGGTKVEIKR		binding result [2]: no binding
Ly1581 (bispecific antibody, also called anti-B7H3/CD40 bi-specific antibody Ly1581) heavy: not shown light: EIVLTQSPATLSLSPGERATLSCRASSSVSYMHWYQQKPGQAPRPWIYATSNLASGIPARFSGSRSGTDYTLTISSLEPEDFAVYYCQQWSSNTLTFGGGTKVEIKRTVAAPSVFIFPPSDEQLKSGTASVVCLLNNFYPREAKVQWKVDNALQSGNSQESVTEQDSKDSTYSLSSTLTLSKADYEKHKVYACEVTHQGLSSPVTKSFNRGEC		binding result [3]: binds
Ly1660 (bispecific antibody, human IgG1, kappa, Four-chain heterodimer format; also called anti-B7H3/CD40 bi-specific antibody Ly1660) heavy: QVQLVQSGAEVKKPGASVKVSCKASGYTFTSYVMHWVRQKPGQGLEWIGYINPYNEGTESTDKFKGRATMTSDKSTSTVYMELSSLRSEDTAVYYCASIYYGYEGTYFGVWGQGTLVTVSSASTKGPSVFPLAPSSKSTSGGTAALGCLVKDYFPEPVTVSWNSGALTSGVHTFPAVLQSSGLYSLSSVVTVPSSSLGTQTYICNVNHKPSNTKVDKKVEPKSCDKTHTCPPCPAPELLGPSVFLFPPKPKDTLMISRTPEVTCVVVDVSHEDPEVKFNWYVDGVEVHNAKTKPREEQYNSTYRVVSVLTVLHQDWLNGKEYKCKVSNKALPAPIEKTISKAKGQPREPQVYTLPPCREEMTKNQVSLWCLVKGFYPSDIAVEWESNGQPENNYKTTPPVLDSDGSFFLYSKLTVDKSRWQQGNVFSCSVMHEALHNHYTQKSLSLSPGK chain 1: not shown light: EIVLTQSPATLSLSPGERATLSCRASSSVSYMHWYQQKPGQAPRPWIYATSNLASGIPARFSGSRSGTDYTLTISSLEPEDFAVYYCQQWSSNTLTFGGGTKVEIKRTVAAPSVFIFPPSDEQLKSGTASVVCLLNNFYPREAKVQWKVDNALQSGNSQESVTEQDSKDSTYSLSSTLTLSKADYEKHKVYACEVTHQGLSSPVTKSFNRGEC chain 2: DIQMTQSPSSVSASVGDRVTITCRASQGIYSWLAWYQQKPGKAPNLLIYTASTLQSGVPSRFSGSGSGTDFTLTISSLQPEDFATYYCQQANIFPLTFGGGTKVEIKSSASTKGPSVFPLAPSSKSTSGGTAALGCLVKDYFPEPVTVSWNSGALTSGVHTFPAVLQSSGLYSLSSVVTVPSSSLGTQTYICNVNHKPSNTKVDKKVEPKSC	binds	
Ly1662 (bispecific antibody, Two-chain format; also called anti-B7H3/CD40 bi-specific antibody Ly1662) heavy: not shown light: EIVLTQSPATLSLSPGERATLSCRASSSVSYMHWYQQKPGQAPRPWIYATSNLASGIPARFSGSRSGTDYTLTISSLEPEDFAVYYCQQWSSNTLTFGGGTKVEIKRTVAAPSVFIFPPSDEQLKSGTASVVCLLNNFYPREAKVQWKVDNALQSGNSQESVTEQDSKDSTYSLSSTLTLSKADYEKHKVYACEVTHQGLSSPVTKSFNRGEC	binds	
Ly1661 (bispecific antibody, human IgG1, kappa, Four-chain heterodimer format; also called anti-B7H3/CD40 bi-specific antibody Ly1661) heavy: QVQLVQSGAEVKKPGASVKVSCKASGYTFTSYVMHWVRQKPGQGLEWIGYINPYNEGTESTDKFKGRATMTSDKSTSTVYMELSSLRSEDTAVYYCASIYYGYEGTYFGVWGQGTLVTVSSASTKGPSVFPLAPSSKSTSGGTAALGCLVKDYFPEPVTVSWNSGALTSGVHTFPAVLQSSGLYSLSSVVTVPSSSLGTQTYICNVNHKPSNTKVDKKVEPKSCDKTHTCPPCPAPELLGPSVFLFPPKPKDTLMISRTPEVTCVVVDVSHEDPEVKFNWYVDGVEVHNAKTKPREEQYNSTYRVVSVLTVLHQDWLNGKEYKCKVSNKALPAPIEKTISKAKGQPREPQVYTDPPSREEMTKNQVSLTCEVKGFYPSDIAVEWESNGQPENNYKTTPPVLDSDGSFFLYSKLTVDKSRWQQGNVFSCSVMHEALHNHYTQKSLSLSPGK chain 1: not shown light: EIVLTQSPATLSLSPGERATLSCRASSSVSYMHWYQQKPGQAPRPWIYATSNLASGIPARFSGSRSGTDYTLTISSLEPEDFAVYYCQQWSSNTLTFGGGTKVEIKRTVAAPSVFIFPPSDEQLKSGTASVVCLLNNFYPREAKVQWKVDNALQSGNSQESVTEQDSKDSTYSLSSTLTLSKADYEKHKVYACEVTHQGLSSPVTKSFNRGEC chain 2: DIQMTQSPSSVSASVGDRVTITCRASQGIYSWLAWYQQKPGKAPNLLIYTASTLQSGVPSRFSGSGSGTDFTLTISSLQPEDFATYYCQQANIFPLTFGGGTKVEIKSSASTKGPSVFPLAPSSKSTSGGTAALGCLVKDYFPEPVTVSWNSGALTSGVHTFPAVLQSSGLYSLSSVVTVPSSSLGTQTYICNVNHKPSNTKVDKKVEPKSC	binds	
Ly1663 (bispecific antibody, Two-chain format; also called anti-B7H3/CD40 bi-specific antibody Ly1663) heavy: QVQLVQSGAEVKKPGASVKVSCKASGYTFTSYVMHWVRQKPGQGLEWIGYINPYNEGTESTDKFKGRATMTSDKSTSTVYMELSSLRSEDTAVYYCASIYYGYEGTYFGVWGQGTLVTVSSASTKGPSVFPLAPSSKSTSGGTAALGCLVKDYFPEPVTVSWNSGALTSGVHTFPAVLQSSGLYSLSSVVTVPSSSLGTQTYICNVNHKPSNTKVDKKVEPKSCDKTHTCPPCPAPELLGPSVFLFPPKPKDTLMISRTPEVTCVVVDVSHEDPEVKFNWYVDGVEVHNAKTKPREEQYNSTYRVVSVLTVLHQDWLNGKEYKCKVSNKALPAPIEKTISKAKGQPREPQVYTLPPSREEMTKNQVSLTCLVKGFYPSDIAVEWESNGQPENNYKTTPPVLDSDGSFFLYSKLTVDKSRWQQGNVFSCSVMHEALHNHYTQKSLSLSPGK light: not shown	binds	
